Measured values: patent US20090035320A1 (MIE UNIVERSITY, published 2009)
Substitutions are numbered along the chain they refer to.

T1: PCI-Flag (human, UniProt P05154 26-406, limits assumed)
T1 construct: Full-length human PCI ORF with a C-terminal Flag tag, secreted by CHO cells and purified from the culture supernatant; also called Flag-tagged PCI
T1 chain: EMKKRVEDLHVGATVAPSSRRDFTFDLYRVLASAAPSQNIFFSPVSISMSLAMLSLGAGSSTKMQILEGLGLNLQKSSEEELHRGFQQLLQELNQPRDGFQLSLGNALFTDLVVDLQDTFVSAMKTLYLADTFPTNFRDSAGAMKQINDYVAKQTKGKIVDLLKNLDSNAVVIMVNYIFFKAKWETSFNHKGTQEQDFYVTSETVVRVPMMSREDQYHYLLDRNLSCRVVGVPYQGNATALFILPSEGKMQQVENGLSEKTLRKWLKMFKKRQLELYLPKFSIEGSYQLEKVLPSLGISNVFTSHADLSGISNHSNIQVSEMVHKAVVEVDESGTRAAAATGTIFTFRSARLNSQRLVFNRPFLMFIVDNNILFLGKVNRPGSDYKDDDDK

B1: PC19G8 (antibody, IgG1, V domains shown)
VH: EVQLQQSGAELVKPGASVKLSCTASGFDIKDTFMHWVKQRPEQGLEWIGRIDYVNGNTKYDPKFQGKATITGDTSSNTAYLQLSSLTSEDTAVYYCARGGYDVREFAYWGQGTLVTVSA
VL: QIVLTQSPAIMSASPGEKVTITCSATSSLIYMHWFQQKPGSSPELWIYSTSNLASGVPARFSGSGSGTSYSLTISRMEAEDAATYYCQQRSSYPFTFGSGTKLEIK
notes: also called clone #19G8; anti-PCI neutralizing antibody
B2: PC39C6 (antibody, IgG1, V domains shown)
VH: EVQLQQSGAELVRPGALVKLSCKASGFNIKDYYIHWVKQRPEQGLEWIGRIDLEKGNIIYDPKFQGKDNITADTSSNTAYLQLSSLTSEDTAVYYCARGGYDVPSFAYWGQGTLVTVSA
VL: B1 VL with T26S, L29V, I30S, S41T, E44K
notes: Mouse hybridoma monoclonal, IgG1, purified on Protein G; also called anti-PCI neutralizing antibody
B3: PC23D8 (antibody, IgG2a, V domains shown)
VH: B1 VH
VL: B1 VL
notes: also called anti-PCI neutralizing antibody
B4: PC23A7 (antibody, IgG2a, V domains shown)
VH: B1 VH with K30R, Y53L, G56V, K63N, G66D, K67R, G72A, S84T
VL: B1 VL with S41T, E44K
notes: Mouse hybridoma monoclonal, IgG2a, purified on Protein G; also called anti-PCI neutralizing antibody
B5: PC31E2 (antibody, V domains shown)
VH: QVQLQQSGAELVKPGASVKMSCKAFGYTFTTYPIEWMKQNHGKSLEWIGKFHPDNDDTNYNEKFKGKAKLTVEKSSSTVYLELSRLTSDDSAVYYCARGHDYDYGMDYWGQGTSVTVSS
VL: DIVLTQSPASLAVSLGQRATISCKASQSVDYDGDSYLNWYQQKPGQPPKLLIYGASNLESGTPARFSGSGSGTDFTLDIHPVEEEDAATYYCQQSNEDPPTFGGGTKLEIT
notes: as for B3

Target: T1, PCI-Flag
Experiment: SPR (BIACORE 2000), PCI-Flag amine-coupled to CM5 chip, antibody injected
Protocol: PCI-Flag was diluted to 25 μg/ml with 10 mM sodium acetate (pH5.0), and then amine-coupled to a sensor chip CM5 (BIACORE; BR-1000-14) using an amine coupling kit (BIACORE; BR-1000-50) according to the method described in the kit. Approximately 3,000 RU of PCI-Flag was immobilized onto the CM5 chip by this treatment. The kinetic analyses described below were performed on BIACORE 2000 using the sensor chip. […] After the chip was equilibrated with HBS-EP buffer, 40 μl of the antibody solution at each concentration was injected at a flow rate of 20 μl/min. In the association phase, the antibody was injected over two minutes. Then, instead of the antibody, HBS-EP buffer was injected over two minutes in the dissociation phase. After the dissociation phase, 40 μl of 10 mM HCl and then 40 μl of 0.05% SDS were injected continuously to regenerate the sensor chip. The sensorgrams obtained by the procedure described above were superimposed, and the binding rate constant (ka), dissociation rate constant (kd), dissociation constant (KD), and maximal binding (Rmax) were computed using data analysis software (BIAevaluation, ver. 3.0).

| Kd [pM] | koff [s⁻¹] | kon [M⁻¹ s⁻¹] | Binder |
| --- | --- | --- | --- |
| 126 | 2.13e-05 | 168000 | B1 |
| 5510 | 0.000489 | 88800 | B2 |
| 293 | 6.59e-05 | 225000 | B3 |
| 473 | 7.17e-05 | 151000 | B4 |
| 1790 | 0.000313 | 175000 | B5 |
